Series [1] has as its target pseudoacetylated tau (244:378) P301L 3xKQ probe with (EAAAK)3 linker to mTurquoise2 or mNeonGreen (UniProt P10636).
Series [2] concerns the molecule itself. The series is described as follows: FRET or BRET; FRET between the two differently labelled copies of the probe, read by flow cytometry; HEK293T transiently transfected, exposed 24 h to serial dilutions of human AD brain extract with Lipofectamine 2000 (1% vol/vol) in Opti-MEM.

As to “seeding-competent tau from human Alzheimer's disease brain (from UniProt P10636 1-758) (natural protein)”, in series [1], the seeding signal (FRET, flow cytometry) in the novel biosensor HEK293T clone 18: tau-immunodepleted AD brain material against the starting material was 82.3%.

B1: pseudoacetylated tau (244:378) P301L 3xKQ probe with (EAAAK)3 linker to mTurquoise2 or mNeonGreen (domain or fragment)
chain: QTAPVPMPDLKNVKSKIGSTENLKHQPGGGKVQIINKKLDLSNVQSKCGSKDNIKHVLGGGSVQIVYQPVDLSQVTSQCGSLGNIHHKPGGGQVEVKSEKLDFKDRVQSKIGSLDNITHVPGGGNKKIETHKLTFEAAAKEAAAKEAAAK
notes: microtubule associated protein tau, amino acids 244 to 378, P301L and lysines 311, 317 and 321 changed to glutamines to mimic acetylation (3xKQ); Both labelled copies come from one construct with a T2A self-cleaving peptide; a small amount of uncleaved polypeptide was seen by western blot; also called 3xKQ mutant; pseudoacetylated (EAAAK)3 probe; source: HEK293T, transiently transfected, in cells
Turning to B1, in series [2], the “fold increase in FRET-positive cells against the probe without 3xKQ” value is approximately 3 fold.
